The subject of data set [1] is HeLa Kyoto. Briefly: solubility in G1/S (NP-40 vs SDS abundance) (log2 ratio); higher = more soluble. The settings on record: cell cycle stage: G1/S.
The subject of data set [2] is HeLa Kyoto. Kind of data set: melting temperature (median over replicates), in situ; higher = more thermally stable.
For data set [3], the system named is HeLa Kyoto. Kind of data set: solubility change mitosis vs G1/S (difference of NP-40 vs SDS log2 ratios) (log2 ratio difference); higher = more soluble in mitosis.
Data set [4] deals with HeLa Kyoto. Briefly: thermal stability score vs G1/S (z-score of summed log2 fold changes over temperatures); higher = more thermally stable than in G1/S.
Where [5] appears, read: cell cycle stage: early G1 (4.5 h after nocodazole release).

The values that follow come from the supplement of paper PMC5998384.
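Throughout, for melting temperature (median over replicates), in situ: HeLa Kyoto cells synchronized by double thymidine or nocodazole block, proteins quantified by TMT10plex mass spectrometry, three independent biological replicates.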
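Throughout, for solubility change mitosis vs G1/S (difference of NP-40 vs SDS log2 ratios): synchronized HeLa Kyoto cells (double thymidine block for G1/S, nocodazole release for mitosis), protein amounts in NP-40 versus SDS lysates quantified by mass spectrometry, three biological replicates.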
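Throughout, for solubility in G1/S (NP-40 vs SDS abundance): HeLa Kyoto cells arrested at G1/S by double thymidine block, proteins quantified by TMT10plex mass spectrometry in mild NP-40 versus SDS extracts, three biological replicates.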
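Throughout, for thermal stability score vs G1/S (z-score of summed log2 fold changes over temperatures): synchronized HeLa Kyoto cells, proteins quantified by TMT10plex mass spectrometry, three biological replicates, mitosis taken 0.5 h after nocodazole release, G1/S directly after double thymidine block.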

Chain of KCTD3 (chain, as listed by the source): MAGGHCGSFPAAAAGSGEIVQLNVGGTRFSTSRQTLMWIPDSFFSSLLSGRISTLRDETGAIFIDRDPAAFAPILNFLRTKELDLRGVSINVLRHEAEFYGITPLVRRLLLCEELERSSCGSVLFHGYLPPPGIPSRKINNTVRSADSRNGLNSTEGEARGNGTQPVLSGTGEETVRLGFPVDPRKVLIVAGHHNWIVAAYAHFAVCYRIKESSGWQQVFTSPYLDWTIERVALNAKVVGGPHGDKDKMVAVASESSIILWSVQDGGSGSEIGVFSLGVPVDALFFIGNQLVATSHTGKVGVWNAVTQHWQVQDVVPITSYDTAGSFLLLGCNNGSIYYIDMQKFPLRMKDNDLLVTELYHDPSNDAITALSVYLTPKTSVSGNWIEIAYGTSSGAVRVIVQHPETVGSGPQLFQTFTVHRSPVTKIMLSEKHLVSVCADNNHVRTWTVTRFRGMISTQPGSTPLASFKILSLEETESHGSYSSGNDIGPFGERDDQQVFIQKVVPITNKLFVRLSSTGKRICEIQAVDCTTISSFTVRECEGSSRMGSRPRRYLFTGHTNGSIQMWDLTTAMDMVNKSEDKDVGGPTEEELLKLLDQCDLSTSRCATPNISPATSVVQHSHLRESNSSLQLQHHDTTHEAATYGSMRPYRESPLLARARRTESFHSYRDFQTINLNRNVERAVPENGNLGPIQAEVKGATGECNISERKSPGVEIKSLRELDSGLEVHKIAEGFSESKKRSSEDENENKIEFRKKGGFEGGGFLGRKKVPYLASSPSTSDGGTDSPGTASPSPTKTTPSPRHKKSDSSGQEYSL

On to “MPLAQLKEPWPLMELVPLDPENGQTSGEEAGLQPSKDEGVLKEISITHHVKAGSEKADPSHFELLKVLGQGSFGKVFLVRKVTRPDSGHLYAMKVLKKATLKVRDRVRTKMERDILADVNHPFVVKLHYAFQTEGKLYLILDFLRGGDLFTRLSKEVMFTEEDVKFYLAELALGLDHLHSLGIIYRDLKPENILLDEEGHIKLTDFGLSKEAIDHEKKAYSFCGTVEYMAPEVVNRQGHSHSADWWSYGVLMFEMLTGSLPFQGKDRKETMTLILKAKLGMPQFLSTEAQSLLRALFKRNPANRLGSGPDGAEEIKRHVFYSTIDWNKLYRREIKPPFKPAVAQPDDTFYFDTEFTSRTPKDSPGIPPSAGAHQLFRGFSFVATGLMEDDGKPRAPQAPLHSVVQQLHGKNLVFSDGYVVKETIGVGSYSECKRCVHKATNMEYAVKVIDKSKRDPSEEIEILLRYGQHPNIITLKDVYDDGKHVYLVTELMRGGELLDKILRQKFFSEREASFVLHTIGKTVEYLHSQGVVHRDLKPSNILYVDESGNPECLRICDFGFAKQLRAENGLLMTPCYTANFVAPEVLKRQGYDEGCDIWSLGILLYTMLAGYTPFANGPSDTPEEILTRIGSGKFTLSGGNWNTVSETAKDLVSKMLHVDPHQRLTAKQVLQHPWVTQKDKLPQSQLSHQDLQLVKGAMAATYSALNSSKPTPQLKPIESSILAQRRVRKLPSTTL [RPS6KA1]”, for which the “solubility in G1/S (log2)” value in data set [1] amounted to 0.0398. Moreover, the melting temperature in data set [2] (cell cycle stage: G1/S) is 49.6 °C; in data set [2] (cell cycle stage: mitosis), 50.2 °C. Also, the “solubility change mitosis (log2)” value in data set [3] is -0.118. The thermal stability score in data set [4] (setting [5]) was found to be 0.39; in data set [4] (cell cycle stage: mitosis) it was 1.42.
With KCTD3, the “solubility in G1/S (log2)” value in data set [1] was -0.0736. The melting temperature was 57.6 °C in data set [2] (cell cycle stage: G1/S) and 56.7 °C in data set [2] (cell cycle stage: mitosis). Also, in data set [3], the “solubility change mitosis (log2)” value came to 0.0231. Moreover, the thermal stability score is -2.92 in data set [4] (setting [5]) and -4.02 in data set [4] (cell cycle stage: mitosis).
For “MSGGGPSGGGPGGSGRARTSSFAEPGGGGGGGGGGPGGSASGPGGTGGGKASVGAMGGGVGASSSGGGPGGSGGGGSGGPGAGTSFPPPGVKLGRDSGKVTTVVATLGQGPERSQEVAYTDIKVIGNGSFGVVYQARLAETRELVAIKKVLQDKRFKNRELQIMRKLDHCNIVRLRYFFYSSGEKKDELYLNLVLEYVPETVYRVARHFTKAKLTIPILYVKVYMYQLFRSLAYIHSQGVCHRDIKPQNLLVDPDTAVLKLCDFGSAKQLVRGEPNVSYICSRYYRAPELIFGATDYTSSIDVWSAGCVLAELLLGQPIFPGDSGVDQLVEIIKVLGTPTREQIREMNPNYTEFKFPQIKAHPWTKVFKSRTPPEAIALCSSLLEYTPSSRLSPLEACAHSFFDELRCLGTQLPNNRPLPPLFNFSAGELSIQPSLNAILIPPHLRSPAGTTTLTPSSQALTETPTSSDWQSTDATPTLTNSS [GSK3A]”, in data set [1], the “solubility in G1/S (log2)” value came to 0.181. The melting temperature in data set [2] (cell cycle stage: G1/S) was determined as 52.3 °C; in data set [2] (cell cycle stage: mitosis) it was 52.7 °C. Besides, in data set [3], the “solubility change mitosis (log2)” value is -0.0272. Further, the thermal stability score was -1 in data set [4] (setting [5]) and -0.972 in data set [4] (cell cycle stage: mitosis).
On to “MDPLGAPSQFVDVDTLPSWGDSCQDELNSSDTTAEIFQEDTVRSPFLYNKDVNGKVVLWKGDVALLNCTAIVNTSNESLTDKNPVSESIFMLAGPDLKEDLQKLKGCRTGEAKLTKGFNLAARFIIHTVGPKYKSRYRTAAESSLYSCYRNVLQLAKEQSMSSVGFCVINSAKRGYPLEDATHIALRTVRRFLEIHGETIEKVVFAVSDLEEGTYQKLLPLYFPRSLKEENRSLPYLPADIGNAEGEPVVPERQIRISEKPGAPEDNQEEEDEGLGVDLSFIGSHAFARMEGDIDKQRKLILQGQLSEAALQKQHQRNYNRWLCQARSEDLSDIASLKALYQTGVDNCGRTVMVVVGRNIPVTLIDMDKALLYFIHVMDHIAVKEYVLVYFHTLTSEYNHLDSDFLKKLYDVVDVKYKRNLKAVYFVHPTFRSKVSTWFFTTFSVSGLKDKIHHVDSLHQLFSAISPEQIDFPPFVLEYDARENGPYYTSYPPSPDL [GDAP2]”, for which the “solubility in G1/S (log2)” value in data set [1] amounted to 0.111. The values for the melting temperature in data set [2] (cell cycle stage: G1/S) and in data set [2] (cell cycle stage: mitosis) were 48.2 °C and 49.1 °C, respectively. Further, in data set [3], the “solubility change mitosis (log2)” value is -0.148. Also, the thermal stability score came out at 0.35 in data set [4] (setting [5]) and 0.405 in data set [4] (cell cycle stage: mitosis).
In the case of “MSPPSPGRRREQRRPRAAATMATPLPGRAGGPATPLSPTRLSRLQEKEELRELNDRLAHYIDRVRALELENDRLLLKISEKEEVTTREVSGIKALYESELADARRVLDETARERARLQIEIGKLRAELDEVNKSAKKREGELTVAQGRVKDLESLFHRSEVELAAALSDKRGLESDVAELRAQLAKAEDGHAVAKKQLEKETLMRVDLENRCQSLQEELDFRKSVFEEEVRETRRRHERRLVEVDSSRQQEYDFKMAQALEELRSQHDEQVRLYKLELEQTYQAKLDSAKLSSDQNDKAASAAREELKEARMRLESLSYQLSGLQKQASAAEDRIRELEEAMAGERDKFRKMLDAKEQEMTEMRDVMQQQLAEYQELLDVKLALDMEINAYRKLLEGEEERLKLSPSPSSRVTVSRATSSSSGSLSATGRLGRSKRKRLEVEEPLGSGPSVLGTGTGGSGGFHLAQQASASGSVSIEEIDLEGKFVQLKNNSDKDQSLGNWRIKRQVLEGEEIAYKFTPKYILRAGQMVTVWAAGAGVAHSPPSTLVWKGQSSWGTGESFRTVLVNADGEEVAMRTVKKSSVMRENENGEEEEEEAEFGEEDLFHQQGDPRTTSRGCYVM [LMNB2]”, in data set [1], the “solubility in G1/S (log2)” value was -1.66. The melting temperature in data set [2] (cell cycle stage: G1/S) came out at 51.4 °C; in data set [2] (cell cycle stage: mitosis), 50.3 °C. Moreover, the “solubility change mitosis (log2)” value in data set [3] amounted to 1.67. Also, the thermal stability score in data set [4] (setting [5]) is -7.21; in data set [4] (cell cycle stage: mitosis) it was -6.08.
Regarding “MDAPGALAQTAAPGPGRKELKIVIVGDGGCGKTSLLMVYSQGSFPEHYAPSVFEKYTASVTVGSKEVTLNLYDTAGQEDYDRLRPLSYQNTHLVLICYDVMNPTSYDNVLIKWFPEVTHFCRGIPMVLIGCKTDLRKDKEQLRKLRAAQLEPITYMQGLSACEQIRAALYLECSAKFRENVEDVFREAAKVALSALKKAQRQKKRRLCLLL [RHOF]”, the “solubility in G1/S (log2)” value in data set [1] is -0.0436. Also, the melting temperature turned out to be 53.8 °C in data set [2] (cell cycle stage: G1/S) and 53 °C in data set [2] (cell cycle stage: mitosis). Moreover, the “solubility change mitosis (log2)” value in data set [3] is -0.104. Moreover, the thermal stability score turned out to be 0.493 in data set [4] (setting [5]) and 0.369 in data set [4] (cell cycle stage: mitosis).
As for “MEFVKCLGHPEEFYNLVRFRIGGKRKVMPKMDQDSLSSSLKTCYKYLNQTSRSFAAVIQALDGEMRNAVCIFYLVLRALDTLEDDMTISVEKKVPLLHNFHSFLYQPDWRFMESKEKDRQVLEDFPTISLEFRNLAEKYQTVIADICRRMGIGMAEFLDKHVTSEQEWDKYCHYVAGLVGIGLSRLFSASEFEDPLVGEDTERANSMGLFLQKTNIIRDYLEDQQGGREFWPQEVWSRYVKKLGDFAKPENIDLAVQCLNELITNALHHIPDVITYLSRLRNQSVFNFCAIPQVMAIATLAACYNNQQVFKGAVKIRKGQAVTLMMDATNMPAVKAIIYQYMEEIYHRIPDSDPSSSKTRQIISTIRTQNLPNCQLISRSHYSPIYLSFVMLLAALSWQYLTTLSQVTEDYVQTGEH [FDFT1]”, the “solubility in G1/S (log2)” value in data set [1] was -0.184. The melting temperature came to 52.2 °C in data set [2] (cell cycle stage: G1/S) and 51.4 °C in data set [2] (cell cycle stage: mitosis). The “solubility change mitosis (log2)” value in data set [3] was -0.0823. Further, the thermal stability score in data set [4] (setting [5]) amounted to 1.39; in data set [4] (cell cycle stage: mitosis) it was 0.889.
“MWRRKHPRTSGGTRGVLSGNRGVEYGSGRGHLGTFEGRWRKLPKMPEAVGTDPSTSRKMAELEEVTLDGKPLQALRVTDLKAALEQRGLAKSGQKSALVKRLKGALMLENLQKHSTPHAAFQPNSQIGEEMSQNSFIKQYLEKQQELLRQRLEREAREAAELEEASAESEDEMIHPEGVASLLPPDFQSSLERPELELSRHSPRKSSSISEEKGDSDDEKPRKGERRSSRVRQARAAKLSEGSQPAEEEEDQETPSRNLRVRADRNLKTEEEEEEEEEEEEDDEEEEGDDEGQKSREAPILKEFKEEGEEIPRVKPEEMMDERPKTRSQEQEVLERGGRFTRSQEEARKSHLARQQQEKEMKTTSPLEEEEREIKSSQGLKEKSKSPSPPRLTEDRKKASLVALPEQTASEEETPPPLLTKEASSPPPHPQLHSEEEIEPMEGPAPAVLIQLSPPNTDADTRELLVSQHTVQLVGGLSPLSSPSDTKAESPAEKVPEESVLPLVQKSTLADYSAQKDLEPESDRSAQPLPLKIEELALAKGITEECLKQPSLEQKEGRRASHTLLPSHRLKQSADSSSSRSSSSSSSSSRSRSRSPDSSGSRSHSPLRSKQRDVAQARTHANPRGRPKMGSRSTSESRSRSRSRSRSASSNSRKSLSPGVSRDSSTSYTETKDPSSGQEVATPPVPQLQVCEPKERTSTSSSSVQARRLSQPESAEKHVTQRLQPERGSPKKCEAEEAEPPAATQPQTSETQTSHLPESERIHHTVEEKEEVTMDTSENRPENDVPEPPMPIADQVSNDDRPEGSVEDEEKKESSLPKSFKRKISVVSATKGVPAGNSDTEGGQPGRKRRWGASTATTQKKPSISITTESLKSLIPDIKPLAGQEAVVDLHADDSRISEDETERNGDDGTHDKGLKICRTVTQVVPAEGQENGQREEEEEEKEPEAEPPVPPQVSVEVALPPPAEHEVKKVTLGDTLTRRSISQQKSGVSITIDDPVRTAQVPSPPRGKISNIVHISNLVRPFTLGQLKELLGRTGTLVEEAFWIDKIKSHCFVTYSTVEEAVATRTALHGVKWPQSNPKFLCADYAEQDELDYHRGLLVDRPSETKTEEQGIPRPLHPPPPPPVQPPQHPRAEQREQERAVREQWAEREREMERRERTRSEREWDRDKVREGPRSRSRSRDRRRKERAKSKEKKSEKKEKAQEEPPAKLLDDLFRKTKAAPCIYWLPLTDSQIVQKEAERAERAKEREKRRKEQEEEEQKEREKEAERERNRQLEREKRREHSRERDRERERERERDRGDRDRDRERDRERGRERDRRDTKRHSRSRSRSTPVRDRGGRR [ACIN1]”: the “solubility in G1/S (log2)” value in data set [1] is -1.35. For the same substance, the values for the melting temperature in data set [2] (cell cycle stage: G1/S) and in data set [2] (cell cycle stage: mitosis) were 49.6 °C and 50.8 °C, respectively. Besides, the “solubility change mitosis (log2)” value in data set [3] was found to be 0.887. The thermal stability score in data set [4] (setting [5]) was -3.76; in data set [4] (cell cycle stage: mitosis), -1.15.
